Experiments:
glycoproteins = experiment: hemagglutinating inhibition test with glycoproteins (sugar binding specificity); type: cell-based
From the text: The sugar binding specificity of lectin also can be confirmed by using erythrocytes that can be specifically agglutinated by the lectin to investigate the sugar type that may inhibit the agglutination of the erythrocytes and the concentration thereof.
Various monosaccharides, oligosaccharides, and polysaccharides shown in Table 2 and glycoproteins shown in Table 3 were subjected to hemagglutinating inhibition test to evaluate PTL of Example 1 and the SRL of Example 2 with regard to the sugar binding specificity.
On a 96 well U-bottom microtiter plate, double dilution series of 10 μl of monosaccharide, oligosaccharide, polysaccharide, and glycoprotein solutions were prepared. Then, lectin solution adjusted in advance to have titer 4 was added in an amount of 10 μl to the respective wells. Then, the plate was subjected to a still-standing at a room temperature for one hour for sensitization. Then, 10 μl of 4%-red blood cell suspension was added to the respective wells and the plate was further subjected to a still-standing at a room temperature for one hour. […] The lowest concentration showing the inhibition was assumed as the minimum inhibition concentration. The lower the minimum inhibition concentration is, the higher the specificity to lectin is.
For comparison, the sugar binding specificity was evaluated using the following commercially-available lectins: Comparison Example 1: AAL (SEIKAGAKU BIOBUSINESS CORPORATION—J-OIL MILLS, Inc.), Comparison Example 2: AOL (TOKYO CHEMICAL INDUSTRY CO., LTD.—Gekkeikan Sake Company, Ltd.), Comparison Example 3: LCA (SEIKAGAKU BIOBUSINESS CORPORATION—J-OIL MILLS, Inc.), and Comparison Example 4: PSA (SEIKAGAKU BIOBUSINESS CORPORATION—J-OIL MILLS, Inc.).

[1] = frontal affinity chromatography (FAC), association constant to PA sugar chains having α1→6 L-fucose; type: binding; conditions: 25 degrees C.
In short: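 Lectin coupled via primary amines to NHS-activated sepharose in a miniature column, run in TBS (pH 7.4) at 0.125 ml/min and 25 degrees C. PA sugar chains (3.75 nM or 7.5 nM) applied in excess, with elution monitored by fluorescence (ex 310/em 380 nm). Ka calculated from front-end delay (V−Vo) versus PA rhamnose and effective ligand amount (Bt).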

- minimum inhibition concentration of hemagglutination (glycoproteins; inhibitor: Asialofetuin): >250 μl/ml
- minimum inhibition concentration of hemagglutination (glycoproteins; inhibitor: Asialomucin (pig)): >250 μl/ml
- minimum inhibition concentration of hemagglutination (glycoproteins; inhibitor: Bovine blood serum albumin): >250 μl/ml
- minimum inhibition concentration of hemagglutination (glycoproteins; inhibitor: Casein): >250 μl/ml
- minimum inhibition concentration of hemagglutination (glycoproteins; inhibitor: Fetuin): >250 μl/ml
- minimum inhibition concentration of hemagglutination (glycoproteins; inhibitor: Human immune globulin A): >250 μl/ml
- minimum inhibition concentration of hemagglutination (glycoproteins; inhibitor: Human immune globulin G): >250 μl/ml
- minimum inhibition concentration of hemagglutination (glycoproteins; inhibitor: Lactoferrin): >250 μl/ml
- minimum inhibition concentration of hemagglutination (glycoproteins; inhibitor: Mucin (bovine)): >250 μl/ml
- minimum inhibition concentration of hemagglutination (glycoproteins; inhibitor: Mucin (pig)): >250 μl/ml
- minimum inhibition concentration of hemagglutination (glycoproteins; inhibitor: Ribonuclease): >250 μl/ml
- minimum inhibition concentration of hemagglutination (glycoproteins; inhibitor: Thyroglobulin): 62.5 μl/ml
- minimum inhibition concentration of hemagglutination (glycoproteins; inhibitor: Transferrin): >250 μl/ml
- minimum inhibition concentration of hemagglutination (glycoproteins; inhibitor: α1-acidic glycoprotein): >250 μl/ml
B1: Pisum sativum agglutinin (protein)
chain: TETTSFLITKFSPDQQNLIFQGDGYTTKEKLTLTKAVKNTVGRALYSSPIHIWDRETGNVANFVTSFTFVINAPNSYNVADGFTFFIAPVDTKPQTGGGYLGVFNSAEYDKTTQTVAVEFDTFYNAAWDPSNRDRHIGIDVNSIKSVNTKSWKLQNGEEANVVIAFNAATNVLTVSLTYPNSLEEENVTSYTLSDVVSLKDVVPEWVRIGFSATTGAEYAAHEVLSWSFHSELSGTSSSKQAADA
- association constant Ka ([1]; Sugar chain No. 015): 120000 M⁻¹
- association constant Ka ([1]; Sugar chain No. 201): 100000 M⁻¹
- association constant Ka ([1]; Sugar chain No. 202): 44000 M⁻¹
- association constant Ka ([1]; Sugar chain No. 203): 25000 M⁻¹
- association constant Ka ([1]; Sugar chain No. 401): 92000 M⁻¹
- association constant Ka ([1]; Sugar chain No. 402): 48000 M⁻¹
- association constant Ka ([1]; Sugar chain No. 403): 38000 M⁻¹
- association constant Ka ([1]; Sugar chain No. 404): 45000 M⁻¹
- association constant Ka ([1]; Sugar chain No. 405): 36000 M⁻¹
- association constant Ka ([1]; Sugar chain No. 406): 13000 M⁻¹
- association constant Ka ([1]; Sugar chain No. 407): <1000 M⁻¹
- association constant Ka ([1]; Sugar chain No. 410): <1000 M⁻¹
- association constant Ka ([1]; Sugar chain No. 413): <1000 M⁻¹
- association constant Ka ([1]; Sugar chain No. 418): <1000 M⁻¹
- association constant Ka ([1]; Sugar chain No. 601): 31000 M⁻¹
- association constant Ka ([1]; Sugar chain No. 602): 29000 M⁻¹

From patent US8461305B2, “L-fucose α1→6 specific lectin” (J-Oil Mills, Inc., priority 2008, dated 2013)
